How the values were obtained:
[1] = target: Dsh-GFP (Drosophila Dishevelled) (UniProt P51140); assay: co-immunoprecipitation (IP α-Flag, IB α-GFP), western blot quantification; conditions: S2 cells, read off a plot
[2] = target: Myc-Pk (Drosophila Prickle) (UniProt A1Z6W3); assay: co-immunoprecipitation (IP α-Flag, IB α-Myc), western blot quantification; conditions: S2 cells; 6 independent replicates; parent: est. 18; read off a plot
[3] = 6–7 replicates, parent: est. 12

UniProt P51140, sequence (P51140 whole entry, looked up): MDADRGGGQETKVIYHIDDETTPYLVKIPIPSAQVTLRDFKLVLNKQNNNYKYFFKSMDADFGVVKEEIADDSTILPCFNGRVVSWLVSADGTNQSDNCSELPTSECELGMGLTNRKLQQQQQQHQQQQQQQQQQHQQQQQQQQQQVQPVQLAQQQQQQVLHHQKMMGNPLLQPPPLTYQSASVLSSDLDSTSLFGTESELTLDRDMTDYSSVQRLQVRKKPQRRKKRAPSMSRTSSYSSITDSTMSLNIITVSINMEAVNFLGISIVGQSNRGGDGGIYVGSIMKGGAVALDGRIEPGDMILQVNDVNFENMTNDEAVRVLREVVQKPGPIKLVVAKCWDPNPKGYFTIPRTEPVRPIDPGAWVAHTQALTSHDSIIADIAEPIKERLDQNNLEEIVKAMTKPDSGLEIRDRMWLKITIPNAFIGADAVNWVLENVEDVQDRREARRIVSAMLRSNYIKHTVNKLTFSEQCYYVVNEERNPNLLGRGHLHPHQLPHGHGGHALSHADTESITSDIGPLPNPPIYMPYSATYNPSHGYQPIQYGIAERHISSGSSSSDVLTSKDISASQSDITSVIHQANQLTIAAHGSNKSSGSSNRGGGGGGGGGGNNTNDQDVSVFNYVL
UniProt A1Z6W3, sequence (A1Z6W3 whole entry, looked up): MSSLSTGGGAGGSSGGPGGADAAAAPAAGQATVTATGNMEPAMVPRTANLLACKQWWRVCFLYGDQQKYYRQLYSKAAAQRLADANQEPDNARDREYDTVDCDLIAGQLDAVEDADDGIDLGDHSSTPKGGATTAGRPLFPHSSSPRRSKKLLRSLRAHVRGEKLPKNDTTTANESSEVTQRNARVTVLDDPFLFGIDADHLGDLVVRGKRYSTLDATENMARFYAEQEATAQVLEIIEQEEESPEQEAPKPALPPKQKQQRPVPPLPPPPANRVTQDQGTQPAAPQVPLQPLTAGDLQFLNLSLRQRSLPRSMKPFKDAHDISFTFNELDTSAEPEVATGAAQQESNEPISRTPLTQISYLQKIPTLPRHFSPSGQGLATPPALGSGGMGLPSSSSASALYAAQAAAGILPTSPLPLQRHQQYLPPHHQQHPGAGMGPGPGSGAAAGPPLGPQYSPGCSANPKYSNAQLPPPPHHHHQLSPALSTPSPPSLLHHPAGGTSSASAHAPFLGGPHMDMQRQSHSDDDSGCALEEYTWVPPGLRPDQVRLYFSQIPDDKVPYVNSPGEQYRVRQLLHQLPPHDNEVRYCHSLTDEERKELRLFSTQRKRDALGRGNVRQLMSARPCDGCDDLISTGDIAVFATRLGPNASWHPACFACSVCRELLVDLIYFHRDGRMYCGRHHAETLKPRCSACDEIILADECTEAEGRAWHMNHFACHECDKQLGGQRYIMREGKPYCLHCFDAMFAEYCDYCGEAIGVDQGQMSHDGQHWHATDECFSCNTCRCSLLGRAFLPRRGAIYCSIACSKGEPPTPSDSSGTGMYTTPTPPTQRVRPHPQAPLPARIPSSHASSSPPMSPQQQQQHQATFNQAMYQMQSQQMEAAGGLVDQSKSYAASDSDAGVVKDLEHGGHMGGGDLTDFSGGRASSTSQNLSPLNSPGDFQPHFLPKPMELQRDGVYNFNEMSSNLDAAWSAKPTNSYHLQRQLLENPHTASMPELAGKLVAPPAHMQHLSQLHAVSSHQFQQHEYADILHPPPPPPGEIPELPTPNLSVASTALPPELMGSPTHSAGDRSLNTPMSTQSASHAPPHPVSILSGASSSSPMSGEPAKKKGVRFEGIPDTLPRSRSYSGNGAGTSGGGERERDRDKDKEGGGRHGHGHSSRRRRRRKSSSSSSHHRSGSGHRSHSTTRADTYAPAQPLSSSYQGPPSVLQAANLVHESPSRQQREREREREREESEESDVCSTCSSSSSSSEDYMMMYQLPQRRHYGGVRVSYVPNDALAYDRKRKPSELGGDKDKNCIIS

Vang-Flagx3 (Drosophila Van Gogh, wild type) F371A; K372A; Y374A
response [1, 3]: 1.6 a.u.
response [2]: 1 a.u.

Vang-Flagx3 (Drosophila Van Gogh, wild type) V376A
response ([1]; 6 replicates, parent: est. 9.6): 2.5 a.u.

Vang-Flagx3 (Drosophila Van Gogh, wild type) Y374A
response [1, 3]: 2.5 a.u.
response [2]: 2.5 a.u.
